For one protein, Km and kcat results are on record in publication PMC8862428, “Modeling the stimulation by glutathione of the steady state kinetics of an adenosine triphosphate binding cassette transporter” (Protein Science : A Publication of the Protein Society, 2021).

Substrate in this data set: Nc1ncnc2c1ncn2[C@@H]1O[C@H](COP(=O)(O)OP(=O)(O)OP(=O)(O)O)[C@@H](O)[C@H]1O
The data set is described as follows: molybdate phosphate-release ATPase assay, global fit to nonessential activator model. Type of data set: biochemical, Novosphingobium aromaticivorans. The settings on record: nanodiscs (MSP1D1/POPC), basal ATPase, constant for transporter without GSSG, Mg complex of ATP, 100 mM NaCl, 20 mM Tris pH 7.5, 37 °C. From the text:
molybdate phosphate-release ATPase assay, global fit to nonessential activator model on NaAtm1

B1: NaAtm1 (Novosphingobium aromaticivorans DSM 12444) (protein)
chain: MPPETATNPKDARHDGWQTLKRFLPYLWPADNAVLRRRVVGAILMVLLGKATTLALPFAYKKAVDAMTLGGGAQPALTVALAFVLAYALGRFSGVLFDNLRNIVFERVGQDATRHLAENVFARLHKLSLRFHLARRTGEVTKVIERGTKSIDTMLYFLLFNIAPTVIELTAVIVIFWLNFGLGLVTATILAVIAYVWTTRTITEWRTHLREKMNRLDGQALARAVDSLLNYETVKYFGAESREEARYASAARAYADAAVKSENSLGLLNIAQALIVNLLMAGAMAWTVYGWSQGKLTVGDLVFVNTYLTQLFRPLDMLGMVYRTIRQGLIDMAEMFRLIDTHIEVADVPNAPALVVNRPSVTFDNVVFGYDRDREILHGLSFEVAAGSRVAIVGPSGAGKSTIARLLFRFYDPWEGRILIDGQDIAHVTQTSLRAALGIVPQDSVLFNDTIGYNIAYGRDGASRAEVDAAAKGAAIADFIARLPQGYDTEVGERGLKLSGGEKQRVAIARTLVKNPPILLFDEATSALDTRTEQDILSTMRAVASHRTTISIAHRLSTIADSDTILVLDQGRLAEQGSHLDLLRRDGLYAEMWARQAAESAEVSEAAE
notes: His-tag (NiNTA) purified from E. coli BL21-gold (DE3); 135 kDa transporter (homodimer); in DDM/C12E8 detergent, MSP1D1/POPC nanodiscs or proteoliposomes
What is called Km is the substrate concentration at which the rate is half of its maximum. What is called kcat is the number of substrate molecules converted per active site and unit of time at saturation. As for B1, the Km is 1410 ± 80 µM and the turnover number (kcat) was found to be 0.531 ± 0.0173 s⁻¹.
